The values below come from paper PMC5016661 (The Journal of Biological Chemistry, 2016).

The data set concerns the molecule itself. The experiment in a line: cryo-EM structure; FraC (5 uM) incubated with DOPC LUVs at a protein/lipid ratio of 1:160 for 30 min; vitrified; 1,562 particles; oligomer bound to the vesicles (non-lytic, prepore).

B1: fragaceatoxin C (natural protein)
chain: ADVAGAVIDGAGLGFDVLKTVLEALGNVKRKIAVGIDNESGKTWTAMNTYFRSGTSDIVLPHKVAHGKALLYNGQKNRGPVATGVVGVIAYSMSDGNTLAVLFSVPYDYNWYSNWWNVRVYKGQKRADQRMYEELYYHRSPFRGDNGWHSRGLGYGLKSRGFMNSSGHAILEIHVTKA
notes: also called FraC; WT FraC; source: E. coli BL21 (DE3), purified (ion-exchange and size-exclusion chromatography)
Regarding B1, the “stoichiometry N” value was 8.

Usually stoichiometry N stands for a count of units in the complex or per binding partner.
